± gives the standard deviation of the averaged measurements.
Experiments:
Saccharomyces cerevisiae [1] = test: protein stability index of tFT-peptide fusion (C-terminal peptide) (PSI (0-1 scale)); higher = more stable (slower turnover); settings: genetic background: wild type; temperature: 30 C
Saccharomyces cerevisiae [2] = test: as above
Procedure: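 MPS profiling in S. cerevisiae of the tFT-X12 degron library: putative degron peptides plus stable controls, 12 aa, fused to the C-terminus of a sfGFP-mCherry timer. Cells are FACS-sorted into 8 mCherry/sfGFP bins and deep-sequenced. PSI runs from 0 (unstable) to 1 (stable). Backgrounds are wild type, das1Δ and doa10Δ at 30 °C, and wild type, das1Δ, cdc34-1 and cdc53-1 at 37 °C; 2-3 technical replicates each.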

[3] = genetic background: cdc34-1, temperature: 37 C
[4] = genetic background: cdc53-1, temperature: 37 C
[5] = genetic background: das1 deletion, temperature: 30 C
[6] = genetic background: das1 deletion, temperature: 37 C
[7] = genetic background: doa10 deletion, temperature: 30 C
[8] = genetic background: wild type, temperature: 30 C
[9] = genetic background: wild type, temperature: 37 C
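Also: PSI is a weighted mean of sequencing reads over stability bins, variants kept only with over 10 reads, mCherry proximal and sfGFP distal, peptide attached via GGGS linker.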

Sequence	protein stability index (Saccharomyces cerevisiae [1])	protein stability index (Saccharomyces cerevisiae [2]; [3])	protein stability index (Saccharomyces cerevisiae [2]; [4])	protein stability index (Saccharomyces cerevisiae [2]; [5])	protein stability index (Saccharomyces cerevisiae [2]; [6])	protein stability index (Saccharomyces cerevisiae [2]; [7])	protein stability index (Saccharomyces cerevisiae [2]; [8])	protein stability index (Saccharomyces cerevisiae [2]; [9])
FLVCTFCRWVWL	0.233 ± 0.056	0.476 ± 0.079	0.6 ± 0.039	0.448 ± 0.028	0.606 ± 0.025	0.165 ± 0.023	0.162 ± 0.012	0.249 ± 0.018
FLVFPLLIQFFL	0.36 ± 0.019	0.2311 ± 0.0022	0.303 ± 0.015	0.356 ± 0.04	0.4346 ± 0.0039	0.346 ± 0.0097	0.257 ± 0.014	0.323 ± 0.014
FPLGAQTWLCLS	0.318 ± 0.0065	0.645 ± 0.084	0.714 ± 0.012	0.609 ± 0.018	0.729 ± 0.022	0.199 ± 0.0021	0.24 ± 0.032	0.466 ± 0.036
FPLPPPGSPPPL	0.0293 ± 0.02	0.68 ± 0.035	0.7381 ± 0.0033	0.6712 ± 0.0062	0.735 ± 0.0085	0.682 ± 0.0071	0.677 ± 0.011	0.707 ± 0.014
FRFFYLPVSVVA	0.223 ± 0.027	0.0275 ± 0.013	0.0356 ± 0.0058	0.146 ± 0.036	0.1275 ± 0.00029	0.105 ± 0.02	0.142 ± 0.021	0.0865 ± 0.013
FRHKLSLGLVIV	0.507 ± 0.011	0.54 ± 0.037	0.555 ± 0.073	0.396 ± 0.029	0.56 ± 0.0072	0.347 ± 0.012	0.377 ± 0.028	0.534 ± 0.014
FRYLRPAFLLLH	0.0906 ± 0.031	0.162 ± 0.071	0.255 ± 0.029	0.355 ± 0.027	0.442 ± 0.0055	0.0693 ± 0.00084	0.0405 ± 0.019	0.0854 ± 0.02
FSALAPTPLLPL	0.706 ± 0.042	0.703 ± 0.055	0.7533 ± 0.0046	0.672 ± 0.029	0.739 ± 0.016	0.662 ± 0.029	0.671 ± 0.016	0.7063 ± 0.0068
FSFCFCFPLSSL	0.301 ± 0.0084	0.5603 ± 0.0013	0.683 ± 0.053	0.528 ± 0.018	0.6285 ± 0.0038	0.209 ± 0.011	0.248 ± 0.013	0.407 ± 0.015
FSPSPVFVTCRV	0.356 ± 0.01	0.247 ± 0.027	0.255 ± 0.013	0.208 ± 0.047	0.343 ± 0.0046	0.182 ± 0.0066	0.218 ± 0.031	0.296 ± 0.011
FTRLDYKRIKIV	0.102 ± 0.024	0.184 ± 0.18	0.625 ± 0.15	0.62 ± 0.017	0.768 ± 0.068	0.0655 ± 0.014	0.0685 ± 0.03	0.0698 ± 0.0013
FVEFCFWCFWVV	0.426 ± 0.005	0.481 ± 0.008	0.575 ± 0.032	0.407 ± 0.012	0.578 ± 0.026	0.351 ± 0.022	0.361 ± 0.026	0.499 ± 0.0043
FVICGMLVHWMV	0.434 ± 0.01	0.479 ± 0.04	0.536 ± 0.084	0.376 ± 0.028	0.58244 ± 0.00049	0.321 ± 0.0041	0.344 ± 0.02	0.5356 ± 0.0023
FVLLCVLEFVAG	0.27 ± 0.008	0.104 ± 0.027	0.166 ± 0.011	0.173 ± 0.025	0.299 ± 0.0013	0.131 ± 0.004	0.151 ± 0.036	0.253 ± 0.0087
FVVFLLFFMLYH	0.379 ± 0.043	0.312 ± 0.052	0.428 ± 0.019	0.317 ± 0.048	0.4366 ± 0.0024	0.311 ± 0.004	0.305 ± 0.025	0.411 ± 0.0096
FVVFYFFLLFGV	0.3283 ± 0.00033	0.318 ± 0.032	0.379 ± 0.0099	0.298 ± 0.034	0.454 ± 0.023	0.289 ± 0.006	0.264 ± 0.025	0.4219 ± 0.0009
FVVVCWFWGGGF	0.425 ± 0.026	0.3213 ± 0.0031	0.406 ± 0.0042	0.283 ± 0.036	0.465 ± 0.013	0.257 ± 0.012	0.27 ± 0.048	0.429 ± 0.021
FWMLCFLCRLTV	0.32 ± 0.03	0.3236 ± 0.0019	0.338 ± 0.0098	0.306 ± 0.043	0.459 ± 0.011	0.2213 ± 0.0021	0.221 ± 0.026	0.361 ± 0.0071
FWVNFLFVLFIL	0.296 ± 0.049	0.257 ± 0.023	0.233 ± 0.018	0.261 ± 0.036	0.4 ± 0.027	0.263 ± 0.005	0.197 ± 0.022	0.307 ± 0.02
FYACRLWLVSVR	0.29 ± 0.0033	0.161 ± 0.027	0.196 ± 0.011	0.191 ± 0.023	0.313 ± 0.0039	0.158 ± 0.007	0.184 ± 0.021	0.269 ± 0.0029
GACRVSSCVVVC	0.4477 ± 0.0044	0.504 ± 0.011	0.548 ± 0.024	0.37 ± 0.032	0.571 ± 0.0072	0.316 ± 0.006	0.358 ± 0.014	0.526 ± 0.0059
GAFAGDVWRCVV	0.297 ± 0.024	0.627 ± 0.02	0.755 ± 0.02	0.653 ± 0.025	0.778 ± 0.014	0.154 ± 0.0073	0.165 ± 0.026	0.2682 ± 0.0021
GALWVLGVVVGG	0.467 ± 0.018	0.461 ± 0.0066	0.505 ± 0.0085	0.365 ± 0.026	0.537 ± 0.0094	0.329 ± 0.012	0.364 ± 0.027	0.511 ± 0.013
GAVRRWGWVSFV	0.331 ± 0.044	0.633 ± 0.052	0.7476 ± 0.0049	0.6425 ± 0.0039	0.744 ± 0.013	0.173 ± 0.0068	0.193 ± 0.0085	0.393 ± 0.004
GAVVYGICFCTN	0.442 ± 0.061	0.624 ± 0.011	0.617 ± 0.0081	0.388 ± 0.031	0.637 ± 0.027	0.35 ± 0.0049	0.363 ± 0.035	0.621 ± 0.0069
GCLVVVGFFSVF	0.326 ± 0.033	0.214 ± 0.049	0.416 ± 0.041	0.255 ± 0.028	0.458 ± 0.028	0.2 ± 0.011	0.241 ± 0.0093	0.409 ± 0.018
GCVLVFFLRLDL	0.49 ± 0.072	0.4328 ± 0.0006	0.538 ± 0.067	0.354 ± 0.034	0.557 ± 0.034	0.3466 ± 0.0014	0.365 ± 0.0072	0.562 ± 0.01
GFALGSFMLVLR	0.0977 ± 0.0089	0.0226 ± 0.0077	0.0469 ± 0.019	0.0861 ± 0.012	0.0844 ± 0.0018	0.596 ± 0.037	0.0702 ± 0.012	0.0617 ± 0.0078
GFCFVFVFQCFF	0.394 ± 0.049	0.339 ± 0.0077	0.451 ± 0.034	0.288 ± 0.031	0.431 ± 0.0031	0.267 ± 0.0043	0.276 ± 0.039	0.402 ± 0.014
GFFFLFFVSAFI	0.407 ± 0.026	0.368 ± 0.021	0.4553 ± 0.0027	0.327 ± 0.034	0.485 ± 0.011	0.2992 ± 0.0012	0.311 ± 0.064	0.445 ± 0.0067

Source: the supplement of paper PMC10724198
